Consider 5 molecules from patent publication US20250145706A1 (SINABIOSOLUTION, published 2025).

Experiment [1] has as its target T1, soluble recombinant version of the IGLV3-21^R110-harboring B-cell receptor (monomeric human IgM, 170.5 kDa) (human).
T1 construct: Produced in 293-HEK cells by transient expression as monomeric human IgM; It was the analyte in solution in the BLI assay; also called soluble IGLV3-21^R110 B-cell receptor; soluble BCR-fragment
As to the kind of experiment: BLI (Octet), reference HC0-LC0. As to the method: (§1) Kinetic assays were performed by first immobilizing the anti IGLV3-21^R110 antibodies onto biosensors through an indirect capturing reagent, anti-human IgG Fc antibody. Anti IGLV3-21^R110 antibodies were loaded at a concentration of […] to generate an anti IGLV3-21^R110 antibody capture level of between 0.30 and 0.34 nm. […] The anti IGLV3-21^R110 antibody capture biosensors were then submerged in wells containing the different concentrations of the soluble BCR-fragment for 900 seconds (association stage) followed by a dissociation step of 1200 seconds in running buffer. Steps were performed at a constant shake speed of 1000 rpm. All reagents were used as described by the manufacturer. Sensorgrams were generated after double reference correction (buffer and blank sensors) to compensate for both the natural dissociation of the capture anti IGLV3-21^R110 antibody and also non-specific binding of the soluble BCR-fragment to the sensor surface. […] (KD) were calculated based on the ratio of association (kₐ) and dissociation rate (kd) constants, obtained by fitting sensorgrams with a first order 1:1 binding model using the Fortebio Data Analysis software (Satorius).
For the KD values of all humanized antibodies, see Table 3.

In experiment [2] the target is T1, soluble recombinant version of the …. The experiment is described as follows: BLI (Octet), antibody captured on anti-human IgG Fc sensor, soluble BCR as analyte, 1:1 model. As to the method: as §1

T1 sequence (heavy, as listed by the source limits assumed, chain 1 of 2): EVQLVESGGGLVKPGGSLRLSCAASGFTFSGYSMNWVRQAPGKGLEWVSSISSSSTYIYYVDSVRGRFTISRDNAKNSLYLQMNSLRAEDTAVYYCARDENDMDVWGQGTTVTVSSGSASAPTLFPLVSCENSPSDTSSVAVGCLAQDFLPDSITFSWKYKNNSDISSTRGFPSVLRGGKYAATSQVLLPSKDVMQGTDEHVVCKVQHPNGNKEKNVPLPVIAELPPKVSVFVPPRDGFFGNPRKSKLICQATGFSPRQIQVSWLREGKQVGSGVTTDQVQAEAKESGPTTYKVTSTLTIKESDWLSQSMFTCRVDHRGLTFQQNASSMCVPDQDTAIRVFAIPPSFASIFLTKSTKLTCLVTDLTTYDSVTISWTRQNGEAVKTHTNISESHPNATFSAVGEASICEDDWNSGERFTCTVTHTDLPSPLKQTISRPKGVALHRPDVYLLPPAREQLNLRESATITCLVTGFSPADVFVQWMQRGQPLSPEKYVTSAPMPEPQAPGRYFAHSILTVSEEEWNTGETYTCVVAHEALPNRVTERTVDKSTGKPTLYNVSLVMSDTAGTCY
T1 sequence (light, as listed by the source limits assumed, chain 2 of 2): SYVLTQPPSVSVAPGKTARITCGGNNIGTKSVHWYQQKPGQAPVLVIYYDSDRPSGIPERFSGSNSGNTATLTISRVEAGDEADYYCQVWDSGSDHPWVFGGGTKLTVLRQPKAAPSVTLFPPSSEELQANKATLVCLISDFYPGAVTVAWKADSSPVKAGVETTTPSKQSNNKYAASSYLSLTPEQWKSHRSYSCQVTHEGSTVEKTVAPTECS

B1: HC7-LC6 (antibody, human IgG1, kappa, V domains shown)
VH: QVQLQESGPGLVKPSETLSLTCTVSGFSLTSYGIHWIRQSPGRGLEWIGVIWRGGGTDSNAAFMSRITISRDTSKTQVSLKLGSVTAADTAIYYCARSRYDEEESMNYWGQGTSVTVSS
VL: EIVLTQSPSSLSASVGDSVTITCRASGNIHSYLAWYQQKPGKAPKLLIYNAKTLADGVPSRFSGSGSGTQYTLTISSLQPEDFATYYCQHFWNTPPTFGAGTKLELKR
notes: Humanized IgG1 / kappa
Regarding B1, the “fold of the dissociation constant against chimeric antibody HC0-LC0” value in experiment [1] is ≤ 2 fold. In addition, the equilibrium dissociation constant (Kd) in experiment [2] was 0.175 nM.

B2: HC7-LC8 (antibody, human IgG1, kappa, V domains shown)
VH: QVQLQESGPGLVKPSETLSLTCTVSGFSLTSYGIHWIRQSPGRGLEWIGVIWRGGGTDSNAAFMSRITISRDTSKTQVSLKLGSVTAADTAIYYCARSRYDEEESMNYWGQGTSVTVSS
VL: EIVLTQSPATLSLSPGERATLSCRASGNIHSYLAWYQQKPGQAPRLLIYNAKTLADGIPARFSGSGSGTDYTLTISSLEPEDFASYYCQHFWNTPPTFGAGTKLELKR
notes: Humanized IgG1 / kappa
For B2, in experiment [2], the Kd came to 0.249 nM.

B3: HC7-LC7 (antibody, human IgG1, kappa, V domains shown)
VH: QVQLQESGPGLVKPSETLSLTCTVSGFSLTSYGIHWIRQSPGRGLEWIGVIWRGGGTDSNAAFMSRITISRDTSKTQVSLKLGSVTAADTAIYYCARSRYDEEESMNYWGQGTSVTVSS
VL: QIQLTQSPSFLSASVGDSVTITCRASGNIHSYLAWYQQKPGKAPQLLIYNAKTLADGVPSRFSGSGSGTEYTLTISSLQPEDFATYYCQHFWNTPPTFGAGTKLELKR
notes: Humanized IgG1 / kappa
Turning to B3, the Kd in experiment [2] came to 0.269 nM.

B4: HC7-LC9 (antibody, human IgG1, kappa, V domains shown)
VH: QVQLQESGPGLVKPSETLSLTCTVSGFSLTSYGIHWIRQSPGRGLEWIGVIWRGGGTDSNAAFMSRITISRDTSKTQVSLKLGSVTAADTAIYYCARSRYDEEESMNYWGQGTSVTVSS
VL: EIVLTQSPGTLSLSPGERATLSCRASGNIHSYLAWYQQKPGQAPRLLIYNAKTLADGIPDRFSGSGSGTDYTLTISRLEPEDFAVYYCQHFWNTPPTFGAGTKLELKR
notes: Humanized IgG1 / kappa
For B4, the dissociation constant Kd in experiment [2] was found to be 0.313 nM.

B5: HC0-LC0 (antibody, human IgG1, kappa, V domains shown)
VH: QVQLQQSGPGLVQPSQSLSITCTVSGFSLTSYGIHWVRQSPGKGLEWLGVIWRGGGTDSNAAFMSRLSITKDNSKSQVFFKMNSLQADDTAIYYCARSRYDEEESMNYWGQGTSVTVSS
VL: QIVLTQSPASLSASVGETVTITCRASGNIHSYLAWYQQKQGKSPQLLVYNAKTLADGVPSRFSGSGSGTQYSLKINSLQPEDFGSYYCQHFWNTPPTFGAGTKLELKR
notes: Chimeric: mAb01-01 VH/VL on human IgG1 / human Ig kappa constant domains; also called chimeric antibody HC0-LC0; HC01 LC01
Regarding B5, in experiment [2], the dissociation constant Kd is 0.121 nM.
